Positions count from the first letter of the chain named. Numbers in names are those of the source. Entries after “also recorded” stand apart in the source; their conditions may differ.
T1: LRP6 E1E2 (Homo sapiens, UniProt O75581)
T1 construct: construct E1E2-amino acids A20-E631 of LPR6; made in house; host or cells: Tni insect cells (baculovirus, secreted)
T1 sequence (O75581 20-631): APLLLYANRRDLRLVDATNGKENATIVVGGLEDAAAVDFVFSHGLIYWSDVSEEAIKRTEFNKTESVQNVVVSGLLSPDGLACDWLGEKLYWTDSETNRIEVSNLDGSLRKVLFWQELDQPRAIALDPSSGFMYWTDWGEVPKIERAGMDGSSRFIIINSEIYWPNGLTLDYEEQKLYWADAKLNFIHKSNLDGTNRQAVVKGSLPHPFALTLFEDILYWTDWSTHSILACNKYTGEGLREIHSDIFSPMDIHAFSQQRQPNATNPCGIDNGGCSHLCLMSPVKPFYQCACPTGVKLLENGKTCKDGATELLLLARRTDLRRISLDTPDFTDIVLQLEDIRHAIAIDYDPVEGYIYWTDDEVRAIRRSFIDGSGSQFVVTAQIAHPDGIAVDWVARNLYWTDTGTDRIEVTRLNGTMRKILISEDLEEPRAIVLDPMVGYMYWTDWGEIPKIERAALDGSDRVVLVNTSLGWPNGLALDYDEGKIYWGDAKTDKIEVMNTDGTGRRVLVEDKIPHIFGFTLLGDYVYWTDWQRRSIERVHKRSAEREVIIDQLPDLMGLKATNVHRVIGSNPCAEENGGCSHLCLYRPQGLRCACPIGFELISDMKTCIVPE

T2: LRP6 E3E4 (Homo sapiens, UniProt O75581)
T2 construct: construct E3E4 amino acids E631-Q1253 of LPR6; made in house; host or cells: Tni insect cells (baculovirus, secreted)
T2 sequence (O75581 631-1253): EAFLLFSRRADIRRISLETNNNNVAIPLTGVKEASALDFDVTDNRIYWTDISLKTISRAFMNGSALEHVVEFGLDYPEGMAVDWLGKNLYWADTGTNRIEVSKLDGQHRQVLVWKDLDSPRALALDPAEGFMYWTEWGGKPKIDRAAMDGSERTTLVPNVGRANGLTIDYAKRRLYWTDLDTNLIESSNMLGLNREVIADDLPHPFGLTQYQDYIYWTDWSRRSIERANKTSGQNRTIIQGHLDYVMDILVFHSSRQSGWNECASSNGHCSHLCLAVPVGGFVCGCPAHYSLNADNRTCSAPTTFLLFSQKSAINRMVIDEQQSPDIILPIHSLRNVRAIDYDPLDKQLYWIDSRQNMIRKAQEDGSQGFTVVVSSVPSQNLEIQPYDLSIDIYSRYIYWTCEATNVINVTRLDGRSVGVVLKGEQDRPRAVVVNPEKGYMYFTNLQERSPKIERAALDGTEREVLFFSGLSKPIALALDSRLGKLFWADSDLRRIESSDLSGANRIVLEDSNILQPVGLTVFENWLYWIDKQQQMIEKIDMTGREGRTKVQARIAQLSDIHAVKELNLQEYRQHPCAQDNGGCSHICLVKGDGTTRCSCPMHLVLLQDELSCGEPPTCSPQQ

B1: Dkk1 Ile42Glu (ligand, human, UniProt O94907 32-266, looked up)
chain: TLNSVLNSNAEKNLPPPLGGAAGHPGSAVSAAPGILYPGGNKYQTIDNYQPYPCAEDEECGTDEYCASPTRGGDAGVQICLACRKRRKRCMRHAMCCPGNYCKNGICVSSDQNHFRGEIEETITESFGNDHSTLDGYSRRTTLSSKMYHTKGQEGSVCLRSSDCASGLCCARHFWSKICKPVLKEGQVCTKHRRKGSHGLEIFQRCYCGEGLSCRIQKDHHQASNSSRLHTCQRH
notes: also called Dkk1 I42E
B2: Dkk1 K211E (ligand, human, UniProt O94907 32-266, looked up)
chain: B1 chain with E11I, K180E
notes: also called Dkk1 Lys211Glu

What was measured:
[1] = biological target: T1, LRP6 E1E2; assay: Biolayer interferometry binding to LRP6 E1E2
Experimental: Binding kinetics were measured by biolayer interferometry using an Octet Red instrument (ForteBio) as previously described (11). Streptavidin (SA) biosensors were loaded with biotinylated hLRP6 in 50 mMTris, pH 8, 300 mM NaCl, 5% (v/v) glycerol, and 0.05% (w/v) Triton X-100. The loaded biosensors were washed in the same buffer before carrying out association and dissociation measurements for the indicated times. The Kd of each interaction was determined using steady state-analysis through the Octet Red software v6.3. Each reported value represents an average of three or more experiments at different concentrations, with a fitted experimental curve for which the square of the correlation coefficient (R^2) is above 0.96.
The interaction of the different Dkks and sclerostin with various domains of LRP6 was measured using a biolayer interferometry assay (11). Purified receptors contained individual β-propeller-EGF-like units (E1, E2, or E4), two β-propellers (E1E2 or E3E4), or four β-propellers (E1E4))—as follows:
Human LRP6: construct E1E4-amino acids A20-Q1253 of LPR6; construct E1E2-amino acids A20-E631 of LPR6; construct E3E4 amino acids E631-Q1253 of LPR6; construct E1-amino acids A20-D325 of LPR6; construct E2-amino acids […]-E631 of LPR6; construct E4-T933-Q1253. The individual LRP6 β-propeller E3 could not be expressed.

[2] = biological target: T2, LRP6 E3E4; assay: Biolayer interferometry binding to LRP6 E3E4
In short: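 Biotinylated human LRP6 ectodomain constructs (β-propeller-EGF units, e.g. E2 D235–E631, E1E2 A20–E631, E3E4 E631–Q1253) were loaded on streptavidin sensors in pH 8 Tris, 300 mM NaCl, 5% glycerol, 0.05% Triton X-100, then exposed to Dkks or sclerostin. Kd came from steady-state analysis, averaging ≥3 concentrations (R²>0.96).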

[3] = test system: Wnt1-dependent signaling; assay: Wnt-dependent TOPbrite luciferase reporter assay, cells transfected with Wnt1; type: cell-based; conditions: cells stably transfected with reporter, transiently with Wnt1
Experimental: FIG. 12. Induction of a Wnt/β-catenin reporter in the presence or absence of wild-type and mutant inhibitors. Cells were transfected by Wnt1 (binds to LRP6 E1E2). Dkk1 and sclerostin variants, or the control inhibitor Fz8 CRD, were used at the indicated doses.
Wnt signaling was assessed either in mouse fibroblast L-cells or in HEK293s cells. The luciferase reporter assay in 293 cells was performed as described (52). The mouse fibroblast L-cell imaging assay was conducted essentially as described(53). Cells were treated with Wnt3a, Fz8 CRD ((US Patent Publication 20080299136; (54), LRP6, or Dkk1, or combinations of these proteins, as indicated and processed after an additional 6 h at 37° C./5% CO2.
To test whether the observed effects on binding between purified proteins were relevant to cellular signaling, Dkk1 and sclerostin activities were tested further in a Wnt-dependent TOPbrite luciferase reporter assay (52). Cells stably transfected with reporter were transfected transiently with Wnt1. The Wnt-transfected cells were treated with purified Dkk1 or sclerostin variants, and the effect on reporter induction was measured (FIG. 12). […] This is consistent with earlier observations that Wnt1 belongs to a class of Wnts signaling through the E1E2 portion of to LRP5/6 (11, 52). The Dkk1 and sclerostin mutants show activities consistent with their binding to LRP6 (FIG. 12). Sclerostin Ile119Glu (“NXI” motif) is impaired relative to wild-type in its ability to inhibit Wnt1-driven signaling, as is Dkk1 Ile42Glu.

Molecule | binding to LRP6 E1E2 (in words) [1] | binding to LRP6 E3E4 (in words) [2] | inhibition of Wnt1-dependent signaling (reporter induction) [3] | Kd ([1]; steady state, read-out: affinity for LRP6 E1E2) [nM] | Kd ([2]; steady state, read-out: affinity for LRP6 E3E4) [nM]
sclerostin: Sclerostin protein, Wnt pathway inhibitor, expressed in insect cells (LPNAIGR) | binds | does not interact | strong inhibition |  | 
Dkk1: Dickkopf 1 protein, Wnt pathway inhibitor, expressed in insect cells (NSNAIKN) |  |  | strong inhibition | 22 | 51
B1 | affect binding | not to E3E4 | impaired |  | 
B2 |  | interfered with binding; also recorded: affect binding | efficiently inhibits |  | 

From patent publication US20140235820A1, “METHODS AND COMPOSITIONS FOR MODULATING THE Wnt PATHWAY” (Genentech, Inc., priority 2010, published 2014)
